According to publication PMC314469, “Protein Interaction Networks by Proteome Peptide Scanning” (PLoS Biology, 2004):

T1: Myo5 SH3 (MYO5_YEAST), Q04439
T1 chain: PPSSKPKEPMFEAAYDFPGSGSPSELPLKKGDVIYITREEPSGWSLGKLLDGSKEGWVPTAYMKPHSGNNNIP


Biological target: T1, Myo5 SH3 (MYO5_YEAST), Q04439
Assay: SPOT array

| Binder | normalised SPOT signal, Boehringer light units (BLU); mean over the file's lines of this peptide |
| --- | --- |
| VLLPLRLPEIPPKG [YFL036W 1323-1336] | 1070 |
| VLSKFIKPKNPSLV [YPL226W 187-200] | 320 |
| VLTKMNAPQKPEDI [YCR004C 46-59] | 296 |
| VPAILMTPISPRSL [YPL188W 282-295] | 138 |
| VPDQLLTPLQPYTI [YJL127C 32-45] | 168 |
| VPDSYKPPKNPIVF [YDR058C 17-30] | 829 |
| VPGEHFAPMGPNGQ [YHR098C 250-263] | 64.7 |
| VPGGMSIPGAPQGA [YPL169C 514-527] | 140 |
| VPIIFEIPFNPIYK [YKL205W 1001-1014] | 215 |
| VPLPFGIPPFPMFP [YKL059C 406-419] | 11600 |
| VPNRWATPLDPSIL [YAL015C 71-84] | 126 |
| VPPNFNAPPNPMAF [YNL118C 392-405] | 1570 |
| VPSAFTAPPVPTKK [YDR517W 312-325] | 358 |
| WLLPYSLPMHPGRW [YHR072W 218-231] | 706 |
| WLSKLVLPPPPVSI [YHR021W-A 81-94] | 4130 |
| YASQYSRPDGPILL [YGR088W 39-52] | 114 |
| YEADYVIPVLPGSH [YNL262W 2031-2044] | 125 |
| YEGRFWNPENPYKF [YEL011W 167-180] | 163 |
| YEKALHFPAGPKST [YFL042C 472-485] | 147 |
| YENSHSLPLDPQSP [YLR416C 105-118] | 122 |

| Binder | normalised SPOT signal, Boehringer light units (BLU); mean over the file's lines of this peptide |
| --- | --- |
| YEQTMKSPKYPSTY [YDR314C 535-548] | 138 |
| YEVTFDGPNDPLHP [YLL028W 124-137] | 111 |
| YFKELPPPSDPSSI [YDL108W 289-302] | 165 |
| YFKNMSNPKIPATK [YIL125W 74-87] | 128 |
| YLLELPDPLIPNDV [YFL047W 564-577] | 163 |
| YLNNLAEPLIPLSL [YDR389W 216-229] | 222 |
| YLNSLSEPLVPLAL [YOR134W 141-154] | 132 |
| YLPHMSRPLGPDEV [YMR131C 97-110] | 172 |
| YLTEFSRPIPPTPS [YPL009C 61-74] | 169 |
| YPAKLRIPETPVKK [YJL187C 187-200] | 220 |
| YPEKFQKPYNPLAM [YJR059W 450-463] | 157 |
| YWKLFFQPEYPVRM [YLR128W 190-203] | 144 |
| AADSHAIPVDPPSY [YKR021W 673-686] | 37.9 |
| AADWYEVPKVPLSA [YLR223C 813-826] | 275 |
| AAMMLGNPMAPAVQ [YER109C 209-222] | 257 |
| AAMNLETPSNPDSA [YPL217C 1040-1053] | 84.9 |
| AANAHISPPVPGPA [YHL002W 373-386] | 28.6 |
| AAPKHAPPPVPNET [YDL019C 770-783] | 111000 |
| AARILANPDHPFSR [YPR122W 171-184] | 166 |
| AAVRLDQPILPQND [YBR018C 82-95] | 105 |

| Binder | normalised SPOT signal, Boehringer light units (BLU); mean over the file's lines of this peptide |
| --- | --- |
| AAYDHAEPVQPEDA [YGL009C 504-517] | 146 |
| AEAYLVTPEEPAKN [YDL129W 9-22] | 39.6 |
| AEFDLTDPEVPSFY [YDR362C 446-459] | 166 |
| AELFLGIPIFPGAS [YJL141C 561-574] | 36.7 |
| AELFLRRPIFPGRD [YBL016W 214-227] | 216 |
| AELLLGQPMFPGES [YMR139W 231-244] | 172 |
| AELMLRIPYLPGQN [YDL108W 196-209] | 236 |
| AEVYYGPPTDPRKQ [YDR001C 32-45] | 83.5 |
| AFHELGIPVIPNPS [YDR232W 404-417] | 193 |
| AFHFWRPPIAPAEM [YDR230W 49-62] | 1960 |
| ALDNFTLPGTPGFP [YLR370C 101-114] | 181 |
| ALDYLIPPPMPKNQ [YOL135C 61-74] | 131 |
| ALGFYRAPGSPAPA [YMR069W 242-255] | 101 |
| ALGIFFAPESPWWL [YDL247W 284-297] | 229 |
| ALKEMTHPIKPSAQ [YLR239C 27-40] | 261 |
| ALKSLSNPSSPWQQ [YDR283C 993-1006] | 30.3 |
| ALNNWILPSTPHIQ [YHR197W 533-546] | 169 |
| ALRKFGYPFSPNDP [YPR097W 38-51] | 166 |
